From article PMC10791742 (Nature Communications, 2024)
Positions count from the first letter of the chain named.

Key:
[1] = biological target: T1, myotoxin II from Bothrops asper (Bothrops asper, UniProt P24605); assay: BLI; […]) biosensors; Fab or IgG at 0, 1, 10 and 100 nM; 600 s association, 600 s dissociation; […]; 1:1 binding model, […]; conditions: both partners purified
T1 construct: also called Mt; Lys49 PLA2-like toxin
T1 sequence (P24605 17-137): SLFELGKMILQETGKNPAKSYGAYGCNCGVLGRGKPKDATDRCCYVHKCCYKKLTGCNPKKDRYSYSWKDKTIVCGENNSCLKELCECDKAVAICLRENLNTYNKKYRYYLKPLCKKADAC

[2] = biological target: T2, myotoxin II from Bothrops asper (Bothrops asper, UniProt P24605); assay: BLI; […]) biosensors ([…] (0, 1, 10, 100 nM; […]; conditions: both partners purified
T2 construct: also called Mt; M2; source: purified from Bothrops asper venom (CM-Sephadex C25, RP-HPLC), biotinylated
T2 sequence (P24605 17-137): as above

B1: E02(Fab) (Fab, V domains shown)
VH: QVQLLESGGGLVQPGRSLRLSCAASGFTFSSYGLHWVRQAPGKGLEWVAVISYDGSNKYYADSVKGRFTISRDNSKNTLYLQMNSLRAEDTAVYYCASTLQQLDAFDIWGQGTLVTVSS
VL: NFMLTQPHSVSESPGKTVTISCTRSSGSIASNYVQWYQQRPGTSPTIMIYEDNQRPSGVPDRFSGAIDSSSNSASLTISGLKTEDEADYYCQSYDSSSVVFGGGTKVTVL
notes: also called TPL0039_05_E02
- Kd [1]: 2.4 nM

B2: TPL0039_05_B12 IgG1 (LALA + YTE) (antibody, V domains shown)
VH: EVQLVESGGGVVQPGRSLRLSCAASGFTFSSYGMHWVRQAPGKGLEWVAVISYDGSNKYYADSVKGRFTISRDNSKNTLYLQMNSLRAEDTAVYYCAGWTEGDAFDIWGQGTLVTVSS
VL: B1 VL with T43S, S44A, T46S, I47T, M48V, Q54R, A66S, S70A, V107I
notes: also called B12(LALA + YTE); copies: 2 + 2
- Kd [2]: < 0.001 nM
- koff [2]: < 1e-07 s⁻¹
- kon [2]: 685000 M⁻¹ s⁻¹

B3: TPL0039_05_B04 IgG1 (LALA + YTE) (antibody, V domains shown)
VH: B2 VH with V5L, G98R, W99V, T100G, G102N, D103E, L113M
VL: B1 VL with S31R, T43S, S44A, I47T, M48V, A66S, S98T, V107L
notes: also called B04(LALA + YTE); copies: 2 + 2
- Kd [2]: 0.0758 nM
- koff [2]: 6.53e-05 s⁻¹
- kon [2]: 861000 M⁻¹ s⁻¹

B4: TPL0039_05_E02 Fab (Fab, V domains shown)
VH: B1 VH
VL: B1 VL
notes: also called Fab E02; source: Expi293F, transient expression, purified (anti-CH1 resin, desalted into PBS)
- koff [2]: 0.000872 s⁻¹
- kon [2]: 360000 M⁻¹ s⁻¹

B5: TPL0039_05_A03 IgG1 (LALA + YTE) (antibody, V domains shown)
VH: B1 VH with L5V, V12A, Q13K, A24V, L34M, L114M
VL: B1 VL with V18I, T43S, S44V, I47P, M48V, N53D, Q54R, A66S, V107I
notes: also called A03(LALA + YTE); copies: 2 + 2
- Kd [2]: < 0.001 nM
- koff [2]: < 1e-07 s⁻¹
- kon [2]: 648000 M⁻¹ s⁻¹

B6: TPL0039_05_F04 IgG1 (LALA + YTE) (antibody, V domains shown)
VH: QVQLVESGGGVVQPGRSPRLSCAASGFTFSSYGMHWVRQAPGKGLEWVAVISYDGSNKYYADSVKGRFTISRDNSKNTLYLQMNSLRAEDTAVYYCAKDLEYSSSSWGQGTLVTVSS
VL: B1 VL with Y37F, T43S, I47T, M48V, N53D, A66S, D88T, Y90F, S98T
notes: also called F04(LALA + YTE); copies: 2 + 2
- Kd [2]: 0.0181 nM
- koff [2]: 1.31e-05 s⁻¹
- kon [2]: 723000 M⁻¹ s⁻¹

B7: TPL0039_05_E02 IgG1 (LALA + YTE) (antibody, V domains shown)
VH: B1 VH
VL: B1 VL
notes: also called E02(LALA + YTE); copies: 2 + 2
- koff [2]: < 1e-07 s⁻¹
- kon [2]: 491000 M⁻¹ s⁻¹

B8: E02(LALA + YTE) human IgG1 (antibody, V domains shown)
VH: B1 VH
VL: B1 VL
notes: also called TPL0039_05_E02
- Kd [1]: < 0.001 nM

B9: TPL0039_05_G08 IgG1 (LALA + YTE) (antibody, V domains shown)
VH: EVQLVESGGGVVQPGRSLRLSCAASGFTFSSYGMHWVRQAPGKGLEWVAVISYDGSNKYYADSVKGRFTISRDNSKNTLYLQMNSLRAEDTAVYYCARTNYDSGDAFDIWGQGTLVTVSS
VL: B1 VL with T43S, I47T, M48V, A66S, S98T, V107L
notes: also called G08(LALA + YTE); copies: 2 + 2
- Kd [2]: < 0.001 nM
- koff [2]: < 1e-07 s⁻¹
- kon [2]: 245000 M⁻¹ s⁻¹
